Laboratory results: publication PMC4480739, “Oncogenic mutations of thyroid hormone receptor β” (Oncotarget, 2015)

B1: in vitro translated AM (receptor, human, UniProt P10828 1-461, looked up)
chain: MTPNSMTENGLTAWDKPKHCPDREHDWKLVGMSEACLHRKSHSERRSTLKNEQSSPHLIQTTWTSSIFHLDHDDVNDQSVSSAQTFQTEEKKCKGYIPSYLDKDELCVVCGDKATGYHYRCITCEGCKGFFRRTIQKNLHPSYSCKYEGKCVIDKVTRNQCQECRFKKCIYVGMATDLVLDDSKRLAKRKLIEENREKRRREELQKSIGHKPEPTDEEWELIKTVTEAHVATNAQGSHWKQKRKFLPEDIGQAPIVNAPEGGKVDLEAFSHFTKIITPAITRVVDFAKKLPMFCELPCEDQIILLKGCCMEIMSLRAAVRYDPESETLTLNGEMAVTRGQLKNGGLGVVSDAIFDLGMSLSSFNLDDTEVALLQAVLLMSSDRPGLACVERIEKYQDSFLLAFEHYINYRKHHVTHFWPKLLMKVTDLRMIGACHCQPLPAHEGGMPTELFPPLFLEVFED
notes: source: in vitro translated (TNT T7 quick coupled kit, Promega)

Columns and labels:
[1] = molecular target: GST fused p85α-CSH2 (C-terminal Src-homology 2 domain of p85α) (UniProt P27986); experiment: pull-down; GST-CSH2 (~5 μg, E. coli expressed) incubated with equal amounts of in vitro translated TRβ1 or mutants, in the presence of T3; bound receptor detected by Western blot with anti-TRβ1; band intensities quantified with ImageJ
[2] = molecular target: T1, GST fused p85α-CSH2 (C-terminal Src-homology 2 domain of p85α) (UniProt P27986 623-706); experiment: as above; conditions: one partner purified
T1 construct: C-terminal SH2 (CSH2) domain of the p85α regulatory subunit of PI3K; the limits 623-706 are told of the domain in the discussion, not in the methods of this assay; also called GST–CSH2; CSH2-conjugated to GST; source: E. coli expressed
T1 sequence (P27986 623-706): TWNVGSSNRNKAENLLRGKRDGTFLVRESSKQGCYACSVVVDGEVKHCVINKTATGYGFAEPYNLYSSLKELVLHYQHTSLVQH

Sequence of GST fused p85α-CSH2 (C-terminal Src-homology 2 domain of p85α) (UniProt P27986) (P27986 623-706): as above

Molecule	fold association relative to TRβ1 [1]	fold association relative to TRβ1 [2]
in vitro translated PV (from UniProt P10828 1-461) (receptor)	3 fold	
B1		3 fold
